In article PMC10772735, “Characterization of erythroferrone oligomerization and its impact on BMP antagonism” (The Journal of Biological Chemistry, 2023):
Where a chain is given by its changes, count along the chain named. In names and notes the source's numbering stands. Several values for one entry are separate records, joined by “and”; a condition that tells them apart may be missing. Equal entries are not always repeated. Where two headings read alike, the source gives them in different places. One block for each molecule: values may come before it.

Tests used:
[1] = molecular target: BMP6 (UniProt P22004); assay: SPR competition (BMP6 + ERFE over Alk3-Fc captured on protein A chip); conditions: curve maximum near the ~300 s dotted line, RU is residual BMP6 binding to Alk3-Fc (lower RU = more competition by ERFE) …, read off a plot
[2] = molecular target: Alk3-Fc ECD (Homo sapiens) (UniProt P36894); conditions: cited from earlier work
Alk3-Fc ECD (Homo sapiens), sequence (P36894 24-152): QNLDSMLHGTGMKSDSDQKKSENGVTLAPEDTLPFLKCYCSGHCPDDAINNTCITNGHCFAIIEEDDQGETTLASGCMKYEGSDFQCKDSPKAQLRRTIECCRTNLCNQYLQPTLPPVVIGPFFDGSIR

[3] = molecular target: the molecule itself; assay: AUC; sedimentation velocity, ΔC1Q ERFE mutants, 0.5 mg/ml, 40,000 RPM, 20 °C, absorbance at 230 nm, never frozen protein after dialysis; oligomeric states assigned qualitatively from approximate masses
[4] = molecular target: T1, BMP6 (UniProt P22004 375-513); assay: cell-based or functional assay
T1 sequence (looked up): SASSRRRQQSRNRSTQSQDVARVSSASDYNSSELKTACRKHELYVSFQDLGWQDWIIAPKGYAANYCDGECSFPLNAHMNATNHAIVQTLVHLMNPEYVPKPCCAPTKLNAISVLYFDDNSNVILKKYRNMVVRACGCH

[5] = molecular target: the molecule itself; assay: non-reducing SDS-PAGE; purified ERFE analysed by SDS-PAGE under reducing and nonreducing conditions; shows only disulfide-linked species
[6] = molecular target: T2, BMP6, P22004; assay: SPR competition (BMP6 + ERFE over Alk3-Fc captured on protein A chip); conditions: chain shown with the change, curve maximum near the ~300 s dotted line, read off a plot
T2 chain: T1 sequence (looked up)

[7] = molecular target: the molecule itself; assay: AUC; sedimentation velocity, full-length ERFE constructs, 0.5 mg/ml, 20,000 rpm, 20 °C, absorbance at 230 nm, freshly purified never frozen protein after dialysis (20 mM Hepes pH 7.5, 150 mM NaCl, 5 mM CaCl2); oligomeric states assigned qualitatively from approximate masses
[8] = molecular target: BMP2 (UniProt P12643 283-396); assay: cell-based or functional assay
BMP2, sequence (P12643 283-396): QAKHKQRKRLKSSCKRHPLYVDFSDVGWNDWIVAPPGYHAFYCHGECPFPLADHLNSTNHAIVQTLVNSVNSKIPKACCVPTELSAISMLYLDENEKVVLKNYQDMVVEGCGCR

[9] = molecular target: T3, GDF5 (UniProt P43026 382-501); assay: cell-based or functional assay
T3 sequence (looked up): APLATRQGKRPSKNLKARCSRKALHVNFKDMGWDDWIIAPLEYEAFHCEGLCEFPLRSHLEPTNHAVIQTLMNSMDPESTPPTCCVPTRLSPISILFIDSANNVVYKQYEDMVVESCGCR

[10] = molecular target: T1, BMP6; assay: cell-based or functional assay; remark: listed apart in the source
[11] = molecular target: T4, BMP7 (UniProt P18075 293-431); assay: cell-based or functional assay
T4 sequence (looked up): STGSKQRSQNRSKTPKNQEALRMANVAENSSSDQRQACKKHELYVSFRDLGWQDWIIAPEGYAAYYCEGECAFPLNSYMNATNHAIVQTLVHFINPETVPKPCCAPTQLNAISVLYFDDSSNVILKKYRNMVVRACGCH

[12] = molecular target: T1, BMP6; assay: cell-based or functional assay; remark: listed apart in the source

response ([1]; 10 nM BMP6 + 80 nM CLR*Cys*ΔC1Q ERFE): 19 RU
response ([1]; 10 nM BMP6 + 160 nM CLR*Cys*ΔC1Q ERFE): 17 RU
Molecule: ΔC1Q ERFE (from UniProt Q4G0M1) CLR* (center PGP in the CLR to SSS); C155S; C157S

Molecule: BMP6 (from UniProt P22004)
Kd [2]: 62.5 nM

IC50 of inhibition of 2.5 nM BMP6 signalling, luciferase reporter, BRITER cells [4]: 97 nM
B1: Cys∗ΔC1Q ERFE (domain or fragment, human, UniProt Q4G0M1 44-207, looked up)
chain: PPPGNELPRGPGESRAGPAARPPEPTAERAHSVDPRDAWMLFVRQSDKGVNGKKRSRGKAKKLKFGLPGPPGPPGPQGPPGPIIPPEALLKEFQLLLKGAVRQRERAEPEPSTSGPAGPVAASLAPVSATAGEDDDDVVGDVLALLAAPLAPGPRAPRVEAAFL
notes: erythroferrone (ERFE), human, stop codon at C208, Cys155 and Cys157 mutated to serines (C208 is not in the truncated chain); source: Expi293, transfected, purified; not shown: FLAG, N-terminal, kept
stoichiometry N [3]: 3

IC50 of inhibition of 2.5 nM BMP6 signalling, luciferase reporter, BRITER cells [4]: 290 nM
B2: CLR∗Cys∗ΔC1Q ERFE (domain or fragment)
chain: B1 chain with P74S, G75S, P76S

IC50 of inhibition of 2.5 nM BMP6 signalling, luciferase reporter, BRITER cells [4]: 7.8 nM
B3: ΔC1Q ERFE (domain or fragment, human, UniProt Q4G0M1 44-207, looked up)
chain: B1 chain with S112C, S114C
notes: erythroferrone (ERFE), human, construct from residue 44 with a stop codon introduced at C208, removing the entire C1Q domain; source: Expi293, transfected, purified; not shown: FLAG, N-terminal, kept
stoichiometry N [3]: 3
stoichiometry N [5]: 2

IC50 of inhibition of 2.5 nM BMP6 signalling, luciferase reporter, BRITER cells [4]: 27 nM
B4: CLR∗ΔC1Q ERFE (domain or fragment)
chain: B1 chain with P74S, G75S, P76S, S112C, S114C
stoichiometry N [3]: 2

response ([6]; 10 nM BMP6 + 5 nM CLR*Cys* ERFE, RU is residual BMP6 binding to Alk3-Fc (lower RU = more competition by ERFE), BMP6 …): 11 RU
response ([6]; 10 nM BMP6 + 10 nM CLR*Cys* ERFE, RU is residual BMP6 binding to Alk3-Fc (lower RU = more competition by ERFE), BMP6 …): 8.7 RU
response ([6]; 10 nM BMP6 + 20 nM CLR*Cys* ERFE, RU is residual BMP6 binding to Alk3-Fc (lower RU = more competition by ERFE), BMP6 …): 6.2 RU
response ([6]; 10 nM BMP6 + 40 nM CLR*Cys* ERFE, RU is residual BMP6 binding to Alk3-Fc (lower RU = more competition by ERFE), BMP6 …): 4 RU
response ([6]; 10 nM BMP6 + 80 nM CLR*Cys* ERFE, RU is residual BMP6 binding to Alk3-Fc (lower RU = more competition by ERFE), BMP6 …): 2.3 RU
response ([6]; 10 nM BMP6 + 160 nM CLR*Cys* ERFE, RU is residual BMP6 binding to Alk3-Fc (lower RU = more competition by ERFE) …): 1.2 RU
B5: N-terminally flag-tagged hERFE (residues 44–354), WT erythroferrone, Q4G0M1 CLR* (center PGP in the CLR to SSS); C155S; C157S; C208S (protein)
chain: PPPGNELPRGPGESRAGPAARPPEPTAERAHSVDPRDAWMLFVRQSDKGVNGKKRSRGKAKKLKFGLPGPPGPSSSQGPPGPIIPPEALLKEFQLLLKGAVRQRERAEPEPSTSGPAGPVAASLAPVSATAGEDDDDVVGDVLALLAAPLAPGPRAPRVEAAFLSRLRRDALVERRALHELGVYYLPDAEGAFRRGPGLNLTSGQYRAPVAGFYALAATLHVALGEPPRRGPPRPRDHLRLLICIQSRCQRNASLEAIMGLESSSELFTISVNGVLYLQMGQWTSVFLDNASGCSLTVRSGSHFSAVLLGV

IC50 of inhibition of 2.5 nM BMP6 signalling, luciferase reporter, BRITER cells [4]: 8.7 nM
B6: Cys∗ ERFE (natural protein, human, UniProt Q4G0M1 44-354, looked up)
chain: B5 chain with S74P, S75G, S76P
notes: erythroferrone (ERFE), human, residues 44-354, Cys155, 157 and 208 mutated to serines; source: some mutants αFlag resin first; not shown: FLAG, N-terminal, kept
stoichiometry N [7]: 3

IC50 of ERFE inhibition of BMP2 (2.5 nM) signalling, BMP responsive luciferase assay (BRE promoter) [8]: 170 nM
IC50 of ERFE inhibition of GDF5 (2.5 nM) signalling, BMP responsive luciferase assay (BRE promoter) [9]: 130 nM
IC50 of ERFE inhibition of BMP6 (2.5 nM) signalling, BMP responsive luciferase assay (BRE promoter) [10]: 5.2 nM
IC50 of ERFE inhibition of BMP7 (2.5 nM) signalling, BMP responsive luciferase assay (BRE promoter) [11]: 8.9 nM
B7: N-terminally flag-tagged hERFE (residues 44–354), WT erythroferrone (natural protein, human, UniProt Q4G0M1 44-354, looked up)
chain: B5 chain with S74P, S75G, S76P, S112C, S114C, S165C
notes: erythroferrone (ERFE, FAM132B), human, residues 44-354; By AUC a mixture of trimer, hexamer and a little high molecular weight species; also called WT ERFE; N-Flag ERFE; not shown: FLAG, N-terminal, kept
stoichiometry N [5]: 2
stoichiometry N [7]: 3 and 6

IC50 of inhibition of 2.5 nM BMP6 signalling, luciferase reporter, BRITER cells [12]: 21 nM
B8: N94A ERFE (natural protein, human, UniProt Q4G0M1 44-354, looked up)
chain: B5 chain with N51A, S74P, S75G, S76P, S112C, S114C, S165C

IC50 of inhibition of 2.5 nM BMP6 signalling, luciferase reporter, BRITER cells [12]: 13 nM
B9: D90A ERFE (natural protein, human, UniProt Q4G0M1 44-354, looked up)
chain: B5 chain with D47A, S74P, S75G, S76P, S112C, S114C, S165C
